# Measurements as given in patent US8624002B2, “Prostaglandin E2 binding proteins and uses thereof” (AbbVie, Inc., priority 2008, dated 2014).
# What was measured:
# [1] = Accelerated stability screening monitored by SEC; type: physicochemical; conditions: SEC
# Protocol: Size exclusion chromatography was used to separate proteins based on size. Proteins are carried in an aqueous mobile phase and through a porous stationary phase resin packed in a column. The retention time in the column is a function of the hydrodynamic size of the protein and the size of the pores in the packed resin bed. Smaller molecules can penetrate into smaller pores in the resin and are retained longer than larger molecules. Upon elution from the column the proteins are detected by UV absorbance. The SEC method used a TSK gel guard (TOSOH Biosciences, Montgomeryville, Pa., cat. no. 08543) and a TSK gel G3000SWxL (TOSOH Biosciences, Montgomeryville, Pa., cat. no. 08541). The mobile phase was 100 mM Na2HPO4, 200 mM Na2SO4, pH 7.0. The flow rate was 0.3 mL/minute. Injection volume was 20 μL of 1 mg/mL sample. The column temperature was room temperature. The autosampler temperature was 2-8° C. The total run time was 50 minutes. The detection was based on UV absorbance at 214 nm wavelength, with band width set at 8 nm, using reference wavelength at 360 nm with band width 100 nm.
# (§1) The stability of a series of clones (i.e., anti-PGE2 antibodies) of the parent anti-PGE2 antibody was assessed by using intrinsic thermodynamic clone stability determination using DSC (0.79 mg/mL clone concentration, formulated at pH 6 in a 10 mM citrate, 10 mM phosphate buffer) and by accelerated stability screening (0.79 mg/mL clone concentration, formulated at pH 6 in a 10 mM citrate, 10 mM phosphate buffer, for 7 days at 50° C.) where clone stability was monitored with SEC (Table 15).
# [2] = Intrinsic thermodynamic stability by DSC; type: physicochemical
# Protocol: The thermal stability of the anti-PGE2 antibodies was assessed using a DSC instrument. The DSC instrument used was an automated VP-DSC equipment with Capillary Cell (Microcal, GE Healthcare Ltd./Microcal, Buckinghamshire, UK). Unfolding of molecules was studied applying a 1° C./minute scan rate over a 25° C.-95° C. temperature range for samples at 1 mg/mL. Additional measurement parameters applied were a fitting period of 16 seconds, a pre-scan wait time of 10 minutes, and measurements were performed in none-feedback mode. Per individual measurement, 420 μL of sample/blank were filled into the DSC measurement sample holder, with a plate fill scheme as provided below. The thermograms obtained were fitted to a non two state model to obtain the midpoint temperatures and enthalpies of the different transitions.
# as §1
# [3] = Biotin-PGE2 ELISA (PGE2-biotinamide binding to captured IgG)
# [4] = PGE2 competition ELISA, format not stated (biotin-PGE2 or ^3H-PGE2); type: binding; conditions: humanized antibodies table
# Protocol: Competition enzyme linked immunosorbent assays were performed to determine prostaglandin binding specificity for antibodies that bind prostaglandin E2, according to at least one of the two following methods.
# ELISA plates (Costar 3369, Corning, N.Y.) were coated with 50 μl/well of anti-host Fc IgG (Sigma, St. Louis, Mo.) at 2 μg/ml in PBS (Invitrogen, Carlsbad, Calif.). Following an overnight incubation at 4° C., the plate was blocked with 200 μl Superblock (Pierce #37535, Rockford, Ill.). The IgG samples were diluted to 6 μg/ml in Assay Buffer (10% Superblock in PBS containing 0.05% Surfactamps (Pierce #37535, Rockford, Ill.). The PGE2-biotinamide was diluted to 3 nM in Assay Buffer. A titration curve in Assay Buffer was prepared for the prostaglandins PGA2 (Cayman Chemicals, Ann Arbor, Mich.), PGD2 (Cayman Chemicals, Ann Arbor, Mich.) and PGE2 (Cayman Chemicals, Ann Arbor, Mich.) starting at 300 nM by a 1:10 serial dilution. The reagents were added to tubes at a volume of 50 μl each/tube and preincubated for 1 hour at room temperature. Following the preincubation, the mix was transferred to the blocked plates and allowed to incubate for 1 hour at room temperature. Next, the plates were washed four times with Tween 20-Tris buffered solution (TTBS). Streptavidin polyhrp40 in Assay Buffer (Fitzgerald Industries, Concord, Mass.) at a 1:5000 dilution was then added to the wells and incubated for 45 minutes at room temperature. A final wash step was performed and the plates were developed using a single step TMB system (Sigma #T8665, Sigma, St. Louis, Mo.) and 100 μl/well 2N H2SO4. Plates were read at 450 nm on a Molecular Devices Spectramax plate reader (Sunnyvale, Calif.). […] IC50 number was determined using GraphPad Prism 5 (GraphPad Software, La Jolla, Calif.). The cross reactivity index was then calculated by IC50 of PGE2/IC50 of other prostaglandin(s).
# Alternatively, prostaglandin selectivity was determined using a ^3H-PGE2 competition ELISA. Plates were coated with 50 μL/well of 5 μg/ml of goat anti-human IgG (Fc) (Thermo Scientific # 31170, Hudson, N.H.) or goat anti-mouse IgG (Fc) (Thermo Scientific # 31125, Hudson, N.H.) in PBS and incubated overnight at 4° C. The following day plates were flicked and blotted dry. Plates were blocked with 200 μL/well of Superblock (Thermo Scientific # 37515, Hudson, N.H.), 1 hour at room temperature. Plates were flicked and blotted dry. Monoclonal antibodies were diluted to 0.04 μg/ml in PBST (Abbott Bioresearch Center, Worcester, Mass.)/10% Superblock and 50 μL of each was added to each well (2 ng/well) of the pre-blocked ELISA plate and incubated for 1 hour at room temperature. Wells were washed 3 times with PBS/0.1% Tween-20. ^3H-PGE2 (Perkin Elmer # NET-428, Waltham, Mass.) was diluted in PBST/10% Superblock to 6 nM (2× stock). Each prostaglandin (Cayman Chemicals, Ann Arbor, Mich.) was prepared in PBST+10% Superblock at various concentrations ranging from 2000 μM (2× stock) to 0.00004 μM (2×). Equal volumes of the ^3H-PGE2 solution and of each prostaglandin dilution were mixed. Fifty microliters of this mixture was then added to each well of the plate and incubated for 1 hour at room temperature. Wells were washed manually 6 times with PBST/10% Superblock and 50 μL of scintillation fluid (Perkin Elmer # 6013621, Waltham, Mass.) added to each well. Plates were read using a TopCount reader (Perkin Elmer, Waltham, Mass.) with a 5 minute count delay. IC50 number was determined using GraphPad Prism 5 (GraphPad Software, La Jolla, Calif.). The cross reactivity index was then calculated by IC50 of PGE2/IC50 of other prostaglandin(s)
# Several antibodies, named 19C9, 4F10 and 15F10 specific for PGE2 were isolated. […] The specificity of these antibodies for PGE2 was further determined by a competition ELISA with various prostaglandins as described in Example 1.B (Table 2). […]
molecule,measurement,setting,value
"Hu2B5.6: humanized 2B5-8.0; VH SEQ ID NO 70, VL SEQ ID NO 71 (antibody, V domains shown) VH: EVQLVQSGAEVKKPGASVKVSCKASGYTFTKYWLGWVRQAPGQGLEWMGDIYPGYDYTHYNEKFKDRVTLTTDTSTSTAYMELSSLRSDDTAVYYCARSDGSSTYWGQGTLVTVSS VL: DVVMTQTPLSLPVTPGEPASISCTSSQNIVHSNGNTYLEWYLQKPGQSPQLLIYKVSNRFSGVPDRFSGSGSGTDFTLKISRVEAEDVGVYYCFQVSHVPYTFGGGTKVEIKR",Aggregate (%),[1]; 7 days storage at 50° C.,2.1577%
same,Fragment (%),[1]; 7 days storage at 50° C.,4.0253%
same,Monomer (%),[1]; 7 days storage at 50° C.,93.817%
same,Fragment (%),[1]; start of stability study,2.7275%
same,Monomer (%),[1]; start of stability study,95.446%
same,Aggregate (%),"[1]; start of stability study, 0.79 mg/mL, pH 6",1.8265%
same,Tm1 (° C.),"[2]; 0.79 mg/mL, pH 6, 10 mM citrate, 10 mM phosphate",73.035 °C
same,Tm2 (° C.),[2]; same buffer,75.585 °C
same,Tm3 (° C.),[2]; same buffer,82.95 °C
same,EC50,[3],89 pM
same,Cross Reactivity Index (%) PGA2,[4]; PGA2,0.15%
same,Cross Reactivity Index (%) PGD2,[4]; PGD2,<0.01%
same,Cross Reactivity Index (%) PGE1,[4]; PGE1,11%
